Measurements taken from US12582683B2, “Prostate neoantigens and their uses” (Jansen Biotech, Inc., priority 2019, dated 2026).

Experiments:
CD8+ and CD4+ T cells = test: Endogenous autologous normal donor restimulation assay (Ad5-transduced dendritic cells plus autologous Pan-T cells); assay type: cell-based, human; conditions: Table 27, restimulation with overlapping 15-mer peptide pools, highest frequency across sixteen normal donors
Procedure: (5% CO2). The following day, DC cells were counted and plated in a 96 well round bottom microplate at a concentration of 30,000 viable cells per well. […] (5% CO2). […] Autologous CD3+ Pan-T cells isolated from human normal PBMCs were thawed using media.
Plates were incubated at 37° C. […] (5% CO2).
The cells were washed with PBS and stained with Live/Dead Fixable Aqua Dead Cell stain (Thermo-Fisher).

[1] = tested on: CD8+ T cells in PBMCs from patients with metastatic castrate-resistant prostate cancer; test: Patient PBMC restimulation assay (in vitro immunogenicity of neoantigens); assay type: cell-based, human; parameters: Maximum frequency of TNFα+IFNγ+CD8+ T cells: unit not given here; conditions: for Maximum fold change over: fold change over negative control, highest across the PBMC donors evaluated, 9 mer peptide; for Maximum frequency of TNFα+IFNγ+CD8+ T cells: greatest frequency among all tested PBMC donors, negative control 0.011-0.8
Procedure: In Vitro Immunogenicity Assessment of Neoantigens (“Patient PBMC Restimulation Assay”)
PBMCs from human patients with metastatic castrate-resistant prostate cancer were thawed using media (RPMI 1640 supplemented with Glutamax, 10% HI FBS, and 1× Sodium Pyruvate). Cells were counted and plated in a 96 well round bottom microplate at a concentration of 250,000 viable cells per well. Lyophilized peptides were solubilized in 100% DMSO and diluted in media to 10 μg/mL. Neoantigen peptides were added in equal volume to PBMCs for a final concentration of 5 μg/mL. CEF Peptide Pool “Plus” (Cellular Technologies, Ltd.) was utilized as a positive control and DMSO at the same final concentration as the experimental peptides was utilized as a negative control. Human IL-15 (Peprotech) was added to all wells at final concentration of 10 ng/mL.
Plates were incubated at 37° C. (5% CO2) for a total of 13 days. Media was refreshed every 2 days with IL-15 (10 ng/mL final concentration) and IL-2 (R&D systems, 10 IU/mL final concentration). On day 12, PBMCs were re-stimulated with identical experimental peptides or controls, at same concentration as peptide stimulation on Day 1. After 1-hour incubation, protein Inhibitor Cocktail (eBioscience) was added to every well and plate was incubated overnight.
On day 13, cells were stained for intracellular flow cytometry analysis. The cells were washed with PBS and stained with Live/Dead Fixable Aqua Dead Cell stain (Thermo-Fisher). Following the live/dead stain, cells were blocked using Biotin-Free Fe Receptor Blocker (Accurate Chemical & Scientific Corp). Extracellular cellular flow panel (1 μL/antibody per well in 50 μL) consisted of CD3 PerCP-Cy5.5 (Biolegend), CD4 BV421 (Biolegend), and CD8 APC-Cy7 (Biolegend). After extracellular staining, cells were fixed using Foxp3/Transcription Factor Staining Buffer Set (eBioscience) and stained for intracellular proteins (1:50 dilution) using TNFα FITC (R&D Systems) and IFNγ BV785 (Biolegend). Cells were washed and resuspended in stain buffer and analyzed using a BD Celesta flow cytometer.
Flow cytometry cell staining analysis was completed using FlowJo v10. Cells were gated on live, singlet, CD3+ cells. The CD8+ T cells were analyzed for TNFα/IFNγ expression and the frequency of double positive TNFα/IFNγ CD8+ T cells was recorded. Responses were assessed to be positive when the frequency of double positive TNFα/IFNγ CD8+ T cells due to stimulation with an experimental peptide was increased greater than or equal to 2-fold over the DMSO only negative control for that patient. Peptides were analyzed in 1 to 7 patient samples.
The 9 mer fragments shown in Table 13 were assessed for their ability to activate T cells using the Patient PBMC restimulation assay described in Example 1 using TNFα and IFNγ production by CD8^+ T cells as a readout. Self-antigens shown in Table 15 were also used in the assays. […] PBMCs from ten patients were evaluated.

HLA-A*01:01 = HLA-A*01:01 (Homo sapiens, UniProt P04439, A114D/A174V/A182V/D101N/D185E/E176A/E190D/L180R/Q94H/R68K/S129P/T187R/V100A/V91M/W191G); test: In vitro binding of neoantigens to class I MHC (UV peptide exchange, HLA class I ELISA); conditions: 100% = same binding affinity as positive control peptide
Procedure: (§1) In Vitro Binding of Neoantigens to Class I MHC
(§2) The 9 mer peptides identified by bioinformatics analysis were analyzed for their binding propensities to 6 common HLA class I alleles (HLA-A*01:01, A*02:01, A*03:01, A*24:02, B*07:02, B*08:01). The principle of the method is briefly described below and consists of two parts, one involving exchange of peptide with a positive control induced by Ultraviolet (UV) radiation, and the second is an enzyme immunoassay to detect stable HLA-peptide and empty HLA complexes.
(§3) HLA-bound peptides are critical for the stability of the HLA complex.
(§4) The exchange efficiency between the peptide of interest and Pos was analyzed using an HLA class I ELISA. The combined technologies allowed the identification of ligands for an HLA molecule of interest which are potentially immunogenic.
(§5) The UV control represented UV-irradiation of conditional HLA class I complex in the absence of a rescue peptide. […] To this end streptavidin was bound onto polystyrene microtiter wells. After washing and blocking, HLA complex present in exchange reaction mixtures or ELISA controls was captured by the streptavidin on the microtiter plate via its biotinylated heavy chain. Non-bound material was removed by washing. Subsequently, horseradish peroxidase (HRP)-conjugated antibody to human B2M was added. […] In the latter case B2M was removed during the washing step. After removal of non-bound HRP conjugate by washing, a substrate solution was added to the wells. A coloured product formed in proportion to the amount of intact HLA complex present in the samples. After the reaction was terminated by the addition of a stop solution, absorbance was measured in a microtiter plate reader. […] Suboptimal HLA binding of peptides with a moderate to low affinity for HLA class I molecules can also be detected by this ELISA technique (Rodenko, B et al. (2006) Nature Protocols 1: 1120-32).
(§6) Binding of select neoepitopes to HLA-A*01:01, HLA-A* 02:01, HLA-A* 03:01, HLA-A*24:02, HLA-1B*07:02 and HLA-1B*08:01 was evaluated using the assay described in Example 1. […] As a criterion for further evaluation, peptides with an exchange rate of at least 10% with the corresponding Pos peptide for at least one of the 6 HLA alleles that we considered for further evaluation. […] Higher percentages correspond to stronger binding to the HLA allele.

HLA-A*02:01 = HLA-A*02:01 (Homo sapiens, UniProt P04439, D140Y/D185E/D98H/E176V/E277Q/G131W/G231S/I119V/I121R/I166T/I218V/L300P/L318F/N151K/N90K/P208A/P217A/Q86G/Q94H/R138H/R169H/T345S); test: as above; conditions: 100% = same binding affinity as positive control peptide
Procedure: as §1, §2, §3, §4, §5, §6

HLA-A*03:01 = HLA-A*03:01 (Homo sapiens, UniProt P04439); test: as above; conditions: 100% = same binding affinity as positive control peptide
Procedure: as §1, §2, §3, §4, §5, §6

HLA-A*24:02 = HLA-A*24:02 (Homo sapiens, UniProt P04439, D101N/D140Y/D185E/E176V/E190D/F33S/G103R/G107R/I119L/I121M/I306V/K335N/L105A/L180Q/L300P/N151K/N90K/Q86E/Q94H/R106L/R138H/R89G/T104I/T345S/V100E/W191G/Y123F); test: as above; conditions: 100% = same binding affinity as positive control peptide
Procedure: as §1, §2, §3, §4, §5, §6

HLA-B*07:02 = HLA-B*07:02 (Homo sapiens, UniProt P01889); test: as above; conditions: 100% = same binding affinity as positive control peptide
Procedure: as §1, §2, §3, §4, §5, §6

Molecule	Maximum Frequency of TNFα/IFNγ Double Positive CD4+30 T cells (CD8+ and CD4+ T cells)	Maximum fold change over [1]	Maximum frequency of TNFα+IFNγ+CD8+ T cells [1]	Exchange rate with Pos peptide, HLA-A*01:01 (HLA-A*01:01) [%]	Exchange rate with Pos peptide, HLA-A*02:01 (HLA-A*02:01) [%]	Exchange rate with Pos peptide, HLA-A*03:01 (HLA-A*03:01) [%]	Exchange rate with Pos peptide, HLA-A*24:02 (HLA-A*24:02) [%]	Exchange rate with Pos peptide, HLA-B*07:02 (HLA-B*07:02) [%]	Immunogenic ([1]; patient PBMC restimulation, CD8+ T cells)
DGHSYTSKVNCLLLQDGFHGCVSITGAAGRRNLSIFLFLMLCKLEFHAC (listed as Homo sapiens) [AS55, splice variant SPOCK1]	0.063	–	–	–	–	–	–	–	–
WKFEMSYTVGGPPPHVHARPRHWKTDR (listed as Homo sapiens) [AS18, splice variant NWD1]	0.046	–	–	–	–	–	–	–	–
YEAGMTLGEKFRVGNCKHLKMTRP (listed as Homo sapiens) [Neoantigen P82, AR-V7]	–	3.46	0.970	1.5	6.3	58.1	−0.1	12.9	–
YEAGMTLGGKILFFLFLLLPLSPFSLIF (listed as Homo sapiens) [Neoantigen P87, AR-Intron]	0.079	3.24	0.120	1.1	64	2.4	0.2	5	–
WTPIPVLTRWPLPHPPPWRRATSCRMARSSPSATSGSSVRRRCSSLPSWVWNLAASTRPRSTPS (peptide, listed as Homo sapiens, TMEM222-LOC644961) WTPIPVLTRWPLPHPPPWRRATSCRMARSSPSATSGSSVRRRCSSLPSWVWNLAASTRPRSTPS	–	5.00	0.480	5.2	8.2	4.1	0.1	91.3	–
VFFKRAAEGFFRMNKLKESSDTNPKPYCMAAPMGLTENNRNRKKSYRETNLKAVSWPLNHT [P76] (peptide, listed as Homo sapiens, AR-V3) VFFKRAAEGFFRMNKLKESSDTNPKPYCMAAPMGLTENNRNRKKSYRETNLKAVSWPLNHT	–	2.30	0.170	0.1	85.9	6	−0.5	91.5	Yes
